In assay [1] the target is T1, VenL lyase domain (residues 1–212).
T1 chain: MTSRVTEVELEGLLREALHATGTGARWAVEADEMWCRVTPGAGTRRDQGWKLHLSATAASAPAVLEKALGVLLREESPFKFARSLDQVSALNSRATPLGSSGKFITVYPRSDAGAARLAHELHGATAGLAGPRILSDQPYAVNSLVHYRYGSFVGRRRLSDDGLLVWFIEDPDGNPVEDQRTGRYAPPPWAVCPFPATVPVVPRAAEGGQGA
Kind of assay: MST.

Assay [2] deals with CurKC lyase domain (residues 1–217) (Thermomonospora curvata DSM43183, fluorophore label in the MST assays (position not given)). Kind of assay: MST.

Usually Kd stands for a measure of binding affinity in units of concentration. Low readings indicate a tighter complex, high ones a looser complex.

B1: VenL kinase domain (residues 213–513) (domain or fragment)
chain: DGSREARGAGAPVLLGGRFAVREAIRHTNKGGVYRGSDVRTGALVVIKEARPHVEADASGHDVRDWLRTEARTLERLRGTGLAPEPLALFEHGGHLFLAQQEVPGVALRTWVAEHFRDAGAERYRVDARAQVGRLVELVAAAHAHGCVLRDFTPGNVMVRPDGELRLIDLELAVLEGDAARPTRVGTPGFSAPERLTGAPVSPTGDYYSLGATACFVLAGKVPNLLPEEPATRAPEQRLAAWLSACAGPLRLPDGLAEMVLGLMKDAPAERWDPARAREALRRADRDDPVTGKPEDSKGSK
With B1, the equilibrium dissociation constant (Kd) in assay [1] is 32.3 ± 2.9 µM; in assay [2], 24.3 ± 3.5 µM.

(Values after publication PMC9828337 (Angewandte Chemie (International Ed. in English), 2022).)
